Assay results taken from paper PMC5314169, “Structure of the Branched-chain Amino Acid and GTP-sensing Global Regulator, CodY, from Bacillus subtilis*” (The Journal of Biological Chemistry, 2016).

Key:
[1] = target: CodY(L3S), leucine 3 to serine mutant of CodY from Bacillus subtilis (Bacillus subtilis) (UniProt P39779); test: crystal structure; CodY(L3S) at 18 mg/ml with 20 mM isoleucine; 15% PEG 5000, 5% tacsimate, 0.1 M HEPES pH 7.5; four molecules per asymmetric unit
[2] = target: the molecule itself; test: SEC-MALLS; 100 ul of 1 mg/ml (~35 uM) protein on Superdex S200 10/300 in 50 mM Tris-HCl pH 7.5, 150 mM NaCl, with or without 10 mM isoleucine (no effect on the trace); no tetramers seen
[3] = target: the molecule itself; test: crystal structure; unliganded CodY, three crystal forms (A, B, C) grown from 10-20 mg/ml protein; form B with 10 mM GTP and form C with 5 mM GTPgammaS present but not seen bound; tetramer in all forms
[4] = target: T1, CodY (wild type, C-terminal His5) (Bacillus subtilis, UniProt P39779 2-259); test: EMSA; 10 mM Ile/Leu/Val; only C1 complex; EMSA: 20 mM Tris-Cl pH 8.0, 50 mM KCl, 2 mM MgCl2, 5% glycerol, 0.5 mM EDTA, 1 mM DTT, 0.05% Nonidet P, salmon sperm DNA (printed 40-25 ug/ml), room temperature 16 min, +/-10 mM ILV; details: protein: recombinant; tags: C-terminal His5; chain copies: 2; label: 32P 5' on one strand; blunt
T1 sequence: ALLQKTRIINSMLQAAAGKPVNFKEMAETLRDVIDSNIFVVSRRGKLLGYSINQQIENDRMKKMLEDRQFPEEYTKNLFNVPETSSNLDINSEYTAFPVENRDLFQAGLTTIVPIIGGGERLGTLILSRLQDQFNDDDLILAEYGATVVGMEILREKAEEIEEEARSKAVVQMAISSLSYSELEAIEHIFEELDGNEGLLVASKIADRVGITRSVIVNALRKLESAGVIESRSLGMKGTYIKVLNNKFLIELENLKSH

[5] = target: T1, CodY (wild type, C-terminal His5); test: EMSA; 10 mM Ile/Leu/Val; apparent Kd, CodY monomer; C2 predominant; EMSA: 20 mM Tris-Cl pH 8.0, 50 mM KCl, 2 mM MgCl2, 5% glycerol, 0.5 mM EDTA, 1 mM DTT, 0.05% Nonidet P, salmon sperm DNA (printed 40-25 ug/ml), room temperature 16 min, +/-10 mM ILV; details: protein: recombinant, tags: C-terminal His5, chain copies: 2, blunt

## CodY(L3S), leucine 3 to serine mutant of CodY from Bacillus subtilis (from UniProt P39779 1-259) (natural protein)
[1]
  stoichiometry N: 4

B1: CodY from Bacillus subtilis, full-length, wild type (natural protein)
chain: GPAMALLQKTRIINSMLQAAAGKPVNFKEMAETLRDVIDSNIFVVSRRGKLLGYSINQQIENDRMKKMLEDRQFPEEYTKNLFNVPETSSNLDINSEYTAFPVENRDLFQAGLTTIVPIIGGGERLGTLILSRLQDQFNDDDLILAEYGATVVGMEILREKAEEIEEEARSKAVVQMAISSLSYSELEAIEHIFEELDGNEGLLVASKIADRVGITRSVIVNALRKLESAGVIESRSLGMKGTYIKVLNNKFLIELENLKSH
notes: what is left of the tag after cleavage with human rhinovirus 3C protease, printed as Gly-Pro-Ala; CodY, Bacillus subtilis, 259 amino acid residues, calculated mass 29 kDa; construct pET-YSBLIC-BsCodY; also called unliganded CodY; wild-type CodY; source: E. coli BL21(DE3), purified (nickel chelation, 3C protease cleavage, second nickel column, heparin, Superdex 200); not shown: polyhistidine, …
[2]
  stoichiometry N: 2
[3]
  stoichiometry N: 4

B2: BcaPp8(19) (dsDNA)
DNA 1: CGAATTTTCTGAAAATTTT
DNA 2: AAAATTTTCAGAAAATTCG
[4]
  binding result: binds

B3: BcaPp8(31) (dsDNA)
DNA 1: TAAAAAATTTGTCGAATTTTCTGAAAATTTT
DNA 2: AAAATTTTCAGAAAATTCGACAAATTTTTTA
[5]; label: 32P 5' on one strand
  Kd: 1.6 nM

B4: BcaPp8(36) (dsDNA)
DNA 1: CAAAATAAAAAATTTGTCGAATTTTCTGAAAATTTT
DNA 2: AAAATTTTCAGAAAATTCGACAAATTTTTTATTTTG
[5]; label: 32P 5' on one strand in EMSA
  Kd: 1.6 nM
